Assays:
[1] = eptifibatide-induced mAb binding, flow cytometry; settings: glycan lost; control: wild-type αIIb with β3
[2] = αIIbβ3 cell surface expression, flow cytometry; settings: glycan lost; control: wild-type αIIb with β3
[3] = surface expression by mAbs 10E5, AP2, AP3, flow cytometry; settings: glycan lost; control: wild-type αIIbβ3
[4] = β3-K716A-mediated mAb binding, flow cytometry; settings: glycan lost; control: wild-type αIIb with active β3-K716A

Substance | structure_or_conformation [1] | expression_or_secretion [2] | further results
integrin αIIb subunit: αIIb-N931S | no change | – | –
integrin αIIb subunit: αIIb-N931Q | – | decreases | –
integrin αIIb subunit: αIIb-N15S | no change | – | expression_or_secretion [3]: no change
integrin αIIb subunit: αIIb-N15Q | – | no change | –
integrin αIIb subunit: αIIb-N249Q | – | decreases | –
integrin αIIb subunit: αIIb-N570Q | – | decreases | –
integrin αIIb subunit: αIIb-N249S | no change | – | structure_or_conformation [4]: no change
integrin αIIb subunit: αIIb-N680Q | – | decreases | –
